One may read the EC50 as the concentration at which the effect is half-maximal.

For three molecules, EC50, IC50 (read off the curve) and reduction of CD47-Fc binding results are on record in patent US20210040206A1.

Assay [1] concerns the target SIRPa v2 (antigen of the ELISA of FIG. 9B) (human) (UniProt P78324). The assay can be described thus: ELISA against SIRPa v2; given as ED50.
The target in assay [2] is human SIRPa expressed by blood monocytes of heterozygous V1/V2 donors (cells carry both SIRPa v1 and SIRPa v2). Nature of the assay: FACS competition on human monocytes of V1/V2 donors; blocked ligand: biotinylated CD47Fc, revealed with streptavidin-PE.
Assay [3] has the same target. The assay can be described thus: flow cytometry competition, recombinant CD47-Fc on heterozygous V1/V2 monocytes (n=5).
Assay [4] has as its target SIRPa V7 (SNP14 + ?) recombinant protein, extracellular domain fused with mouse Fc from IgG2a (human; mouse) (UniProt P78324). The assay can be described thus: ELISA on immobilised SIRPa variant-mouse Fc, donkey anti-human IgG peroxidase, TMB 450 nm; given as ED50. (In general: ELISA stands for enzyme-linked immunosorbent assay.)
Assay [5] addresses SIRPa V4 (SNP8) recombinant protein, extracellular domain fused with mouse Fc from IgG2a (human; mouse) (UniProt P78324). The description is as above.
Assay [6] deals with SIRPa V6 (SNP12 + 13) recombinant protein, extracellular domain fused with mouse Fc from IgG2a (human; mouse) (UniProt P78324). Described as above.
The target of another assay is SIRPv2 (human;mouse) (UniProt P78324). The description is as above.
Assay [7] concerns the target SIRPa V3 (SNP1 + 2 + 3 + 4 + 5 + 6) recombinant protein, extracellular domain fused with mouse Fc from IgG2a (human; mouse) (UniProt P78324). The description is as above.
For assay [8], the target named is SIRPa V1 recombinant protein (extracellular domain fused with mouse Fc from IgG2a) (human; mouse) (UniProt P78324). Described as above.
For assay [9], the target named is SIRPa V8 (SNP15 + 16) recombinant protein, extracellular domain fused with mouse Fc from IgG2a (human; mouse) (UniProt P78324). Described as above.
Assay [10] has as its target SIRPa V5 (SNP9 + 10 + 11) recombinant protein, extracellular domain fused with mouse Fc from IgG2a (human; mouse) (UniProt P78324). Described as above.

Sequence of SIRPa v2 (antigen of the ELISA of FIG. 9B) (human) (P78324 other isoform, or with tags, fused parts or gaps limits assumed): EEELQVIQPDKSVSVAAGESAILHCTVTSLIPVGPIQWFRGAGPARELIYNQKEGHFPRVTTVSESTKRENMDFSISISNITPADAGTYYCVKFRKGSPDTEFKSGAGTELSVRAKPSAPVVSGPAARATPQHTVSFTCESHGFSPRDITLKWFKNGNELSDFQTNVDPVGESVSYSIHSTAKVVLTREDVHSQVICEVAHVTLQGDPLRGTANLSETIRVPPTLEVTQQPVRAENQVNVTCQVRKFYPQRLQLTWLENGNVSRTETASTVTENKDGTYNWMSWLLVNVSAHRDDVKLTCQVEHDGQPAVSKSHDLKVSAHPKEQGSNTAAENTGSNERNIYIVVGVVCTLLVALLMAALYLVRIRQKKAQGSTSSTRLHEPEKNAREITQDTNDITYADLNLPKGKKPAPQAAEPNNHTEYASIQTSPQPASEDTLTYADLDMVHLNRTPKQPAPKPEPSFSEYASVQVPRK
Sequence of SIRPa V4 (SNP8) recombinant protein, extracellular domain fused with mouse Fc from IgG2a (human; mouse) (P78324 31-373 G75A limits assumed): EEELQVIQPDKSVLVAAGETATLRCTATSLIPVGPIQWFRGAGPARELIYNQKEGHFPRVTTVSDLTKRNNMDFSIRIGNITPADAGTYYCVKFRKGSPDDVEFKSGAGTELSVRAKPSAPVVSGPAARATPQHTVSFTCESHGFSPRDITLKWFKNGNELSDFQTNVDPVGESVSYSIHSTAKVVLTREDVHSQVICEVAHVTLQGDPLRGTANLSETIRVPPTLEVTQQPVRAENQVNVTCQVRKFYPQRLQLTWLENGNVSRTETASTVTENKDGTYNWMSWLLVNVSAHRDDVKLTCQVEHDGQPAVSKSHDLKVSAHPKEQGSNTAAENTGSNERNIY
Sequence of SIRPa V1 recombinant protein (extracellular domain fused with mouse Fc from IgG2a) (human; mouse) (P78324 31-373 limits assumed): as the sequence (P78324 31-373 G75A limits assumed) above, with A45G counted along it
Sequence of SIRPv2 (human;mouse) (P78324 31-373): as the sequence (P78324 31-373 G75A limits assumed) above, with A45G counted along it
Sequence of SIRPa V3 (SNP1 + 2 + 3 + 4 + 5 + 6) recombinant protein, extracellular domain fused with mouse Fc from IgG2a (human; mouse) (P78324 other isoform, or with tags, fused parts or gaps limits assumed): as the sequence (P78324 31-373 G75A limits assumed) above, with L14S, T20S, T22I, R24H, A27V, A45G counted along it
Sequence of SIRPa V7 (SNP14 + ?) recombinant protein, extracellular domain fused with mouse Fc from IgG2a (human; mouse) (P78324 31-373 R107S/G109S limits assumed): as the sequence (P78324 31-373 G75A limits assumed) above, with A45G, R77S, G79S counted along it
Sequence of SIRPa V5 (SNP9 + 10 + 11) recombinant protein, extracellular domain fused with mouse Fc from IgG2a (human; mouse) (P78324 31-373 D95E/L96S limits assumed): as the sequence (P78324 31-373 G75A limits assumed) above, with A45G, D65E, L66S counted along it
Sequence of SIRPa V6 (SNP12 + 13) recombinant protein, extracellular domain fused with mouse Fc from IgG2a (human; mouse) (P78324 31-373 N100E limits assumed): as the sequence (P78324 31-373 G75A limits assumed) above, with A45G, N70E counted along it

B1: chimeric 18D5 antibody (antibody, from a related filing, V domains shown)
VH: QVQLQQPGAELVRPGSSVKLSCKASGYTFTSYWVHWVKQRPIQGLEWIGNIDPSDSDTHYNQKFKDKASLTVDKSSSTAYMQLSSLTFEDSAVYYCVRGGTGTMAWFAYWGQGTLVTVSA
VL: DVVMTQTPLSLPVSLGDQASISCRSSQSLVHSYGNTYLYWYLQKPGQSPKLLIYRVSNRFSGVPDRFSGSGSGTDFTLKISRVEAEDLGVYFCFQGTHVPYTFGSGTKLEIKR
B1 displayed an EC50 in assay [1] of 5720 ng/mL.

B2: in-house anti-human SIRPa v1 antibody (antibody, human IgG4, V domains shown)
VH: EVQLVQSGAEVKKPGESLRISCKASGYSFTSYWVHWVRQMPGKGLEWMGNIDPSDSDTHYSPSFQGHVTLSVDKSISTAYLQLSSLKASDTAMYYCVRGGTGTLAYFAYWGQGTLVTVSS
VL: DVVMTQSPLSLPVTLGQPASISCRSSQSLVHSYGNTYLYWFQQRPGQSPRLLIYRVSNRFSGVPDRFSGSGSGTDFTLKISRVEAEDVGVYYCFQGTHVPYTFGGGTKVEIK
B2 showed an IC50 (read off the curve) in [2] of 100 ng/mL. For the same molecule, the reduction of CD47-Fc binding in assay [3] was determined as 50%.

B3: Kwar antibody (antibody, from a related filing, V domains shown)
VH: EVQLQQSGAELVKPGASVKLSCTASGFNIKDYYIHWVQQRTEQGLEWIGRIDPEDGETKYAPKFQDKATITADTSSNTAYLHLSSLTSEDTAVYYCARWGAYWGQGTLVTVSS
VL: QIVLTQSPAIMSASPGEKVTLTCSASSSVSSSYLYWYQQKPGSSPKLWIYSTSNLASGVPARFSGSGSGTSYSLTISSMEAEDAASYFCHQWSSYPRTFGAGTKLELK
Turning to B3, the EC50 in [4] worked out at 0.6 ng/mL; in [5] it was 0.74 ng/mL; in [6], 0.75 ng/mL; with SIRPv2 (human;mouse) it was 0.77 ng/mL; in [7], 0.77 ng/mL; in [8] it was 0.77 ng/mL. Moreover, the EC50 in assay [9] is 0.93 ng/mL; in assay [10] it was 0.78 ng/mL.
